According to patent publication US10287317B2, “Proprotein convertase subtilisin kexin type 9 (PCSK9) allosteric binding ligands to modulate serum low density lipoprotein (LDL) levels” (SRX Cardio, LLC, priority 2013, dated 2019):
*1 amine or outer side, *2 acyl side, *3 side chain or, on linkers, in order; H or OH if unused. Where no end group is shown, it is not given here. [ ]: non-standard residue; d: D form. Cys(CH2-Ph) = S-benzyl-Cys, O=C([C@H](CSCc1ccccc1)N[*:1])[*:2]; Phe(3-CH2NH2) = O=C([C@H](Cc1cccc(CN[*:3])c1)N[*:1])[*:2]; d(pS) = N[C@H](COP(=O)(O)O)C(=O)O; pS = N[C@@H](COP(=O)(O)O)C(=O)O; Trp(3-Me) = 3-methyltryptophan; βAla = NCCC(=O)O

Key:
Assay type in all cases: cell-based
PCSK9-WT protein [1] = biological target: T1, PCSK9-WT protein (Homo sapiens, UniProt Q8NBP7); experiment: Cellular diI-LDL uptake in HuH7 cells with PCSK9-WT; conditions: HuH7, 1.0 μg/ml PCSK9-WT, 100 uM peptide (FIG. 2)
T1 construct: V5
Method: (§1) HuH7 cells were incubated in a 96-well plate for a total of 20 h in the absence (Cnt) or presence of 1.0 μg/ml PCSK9-WT protein alone (WT) or mixed with 100 uM of various SRX peptides. After 16 h, dil-LDL (5 ug/ml) was added to the incubation mixtures. After 4 h, fluorescence was measured (Ex: 520 nm/Em: 575 nm; cutoff: 550 nm). Dil-LDL uptake is calculated as RFU corrected for the number of cells.
(§2) LDL internalization was measured by uptake of a fluorescently tagged LDL molecule (diI-LDL) in the absence of exogenous PCSK9 (Cnt), in the presence of exogenous PCSK9 (normal PCSK9=WT, D374Y mutant PCSK9=DY), or in the presence of PCSK9 and a tested peptide (indicated as SRX##, or SRX if a single peptide results is shown in a graph).
(§3) Cells, such as HepG2, HuH7, FL83B or a cell line transfected with a short-hairpin PCSK9 knockdown sequence such as HepG2/shPCSK9, HuH7/shPCSK9, FL83B/shPCSK9, were seeded at 2×10^4 cells/well in a 96-well plate and cultured at 37 degC in RPMI+10% FBS. After approximately 24 hours, the cell media was aspirated off and replaced with RPMI+3-5 mg/mL LPDS (Lipoprotein Deficient Serum, Millipore) media for further experimentation. Benjannet et al., “Effects of the prosegment and pH on the activity of PCSK9: evidence for additional processing events” J Biol Chem. 285(52): 40965-40978 (2010).
(§4) Peptide activity was assessed by culturing cells with: i) no SRX peptide/PCSK9 protein complex (control, Cnt); ii) PCSK9 protein; and iii) SRX peptide/PCSK9 complex. Various permutations of these experimental conditions were also used, including: i) the addition of wild type PCSK9 (WT); ii) a mutant PCSK9 (e.g., D374Y mutant PCSK9, DY); iii) various SRX peptides and/or PCSK9 at the same concentration and/or combinations; iv) various SRX peptides and/or PCSK9 at different concentrations and/or combinations; v) the use of different cells, as mentioned above, with or without a transfected short-hairpin sequence; vi) a pre-incubation of the PCSK9 and SRX peptide (e.g., 1, hour, 2 hours, 3 hours, 4 hours etc.); vii) various temperatures including, but not limited to, body temperature (e.g., 37° C.), supraphysiologic temperature (e.g., 39° C.); and viii) with/without agitation (e.g., shaker or gentle periodic vortexing).
(§5) Cells were cultured using one of the combinations of conditions described in the preceding paragraph for 16 hours. After 16 hours, a quantity of diI-LDL (Low density lipoprotein coupled with 1,1′-dioctadecyl-3,3,3′,3′-tetramethylindocarbocyanine perchlorate) needed to bring the media concentration to 5 ug/mL of diI-LDL was added to the culture well and cells continued to be cultured under these new conditions for 4 additional hours. At the end of the 4-hour incubation period (20 total hours of cell culture), the cellular uptake was halted with the addition of 4% formaldehyde in 10 uM Hoechst 33342 in a solvent such as deionized autoclaved water or PBS, and specimens were incubated at 20° C. for 20 minutes. Cell specimens were rinsed twice with PBS and then fluorescence measured with excitation at 360 nm and emission detected at 460 nm to measure DNA content. Cell specimens were then be incubated with a 0.1% SDS in a 0.1 N NaOH solution while being shaken for 10 minutes. Fluorescence of the diI-LDL in the specimens were quantified using excitation at 530 nm and resulting emission at 580 nm.
Fluorescence measurements of diI-LDLR were normalized to estimated cell numbers, determined from the Hoechst fluorescence. Data was analyzed for the different experimental conditions and reported as percentage relative fluorescence units (RFU) of the Cnt specimen. Percent inhibition was calculated as the difference in RFU of a peptide exposed specimen to the RFU of PCSK9-no peptide, divided by the RFU difference in PCSK9-no peptide to RFU of Cnt specimen, also expressed as [(SRX:RFU)−(PCSK9-no peptide:RFU)]/[(PCSK9-no peptide:RFU)−(Cnt:RFU)]×100.

PCSK9-D374Y protein = PCSK9-D374Y protein (Homo sapiens, UniProt Q8NBP7, D374Y); experiment: Cellular diI-LDL uptake in HuH7 cells with PCSK9-D374Y
Method: as §1, with “0.5” for “1.0”, “PCSK9-D374Y” for “PCSK9-WT”, “(DY)” for “(WT)”
as §1, with “0.5” for “1.0”, “PCSK9 GOF-D374Y” for “PCSK9-WT”, “(DY)” for “(WT)”, “increasing concentrations” for “100 uM”
as §2, §3, §4, §5
Fluorescence measurements of diI-LDLR were normalized to estimated cell numbers, determined from the Hoechst fluorescence. […]

PCSK9-WT protein [2] = biological target: T1, PCSK9-WT protein; experiment: FACS analysis of cell surface LDLR in HuH7 cells with PCSK9-WT; conditions: HuH7 cells, FACS, exogenous WT PCSK9 plus peptide (FIG. 1, 100 μM)
Method: HuH7 cells were incubated for 18 h in the absence (Cnt) or presence of 0.75 μg/ml PCSK9-WT protein alone (WT) or mixed with 100 μM of various SRX peptides. The level of LDLR at the cell surface was measured by FACS using anti human LDLR Ab and a suitable secondary Ab labeled with Alexa 647. Cell surface LDLR is reported relative to Cnt. % inhibition of activity was calculated as [SRX−WT]/[Cnt−WT]×100%.
See, FIG. 1. In that experiment, the LDLR levels of a hepatocyte culture model (HuH7 cells) were measured by fluorescence activated cell sorting (FACS) in accordance with Example III. Cell surface LDLR is reported as a percentage of Basal levels of LDLR, indicated by the Cnt_Amm.Bic, Cnt_Ac.Acid, and Cnt bars in the top graph. See, FIG. 1 (top panel). LDLR levels in the presence of exogenous PCSK9 is indicated as WT_Amm.Bic, WT-Ac.Acid, and WT, and Exogenous PCSK9 in combination with a tested peptide is indicated as SRX##. The measured LDLR levels are reported as % versus basal controls (Cnt) of the respective group. […] This was further shown a percent inhibition (% inhibition was calculated as [SRX−WT]/[Cnt−WT]×100%) where positive modulation (increase) of LDLR level is reported as positive % inhibition, and negative modulation (decrease) of LDLR level is reported as negative % inhibition. See, FIG. 1 (bottom panel).
Benjannet et al., “Effects of the prosegment and pH on the activity of PCSK9: evidence for additional processing events” J Biol Chem. 285(52): 40965-40978 (2010). The cells were then washed 3× with solution A (calcium/magnesium-free Dulbecco's PBS (Invitrogen) containing 0.5% bovine serum albumin (Sigma) and 1 g/liter glucose)). The cells were then incubated for 10 min at room temperature with 1× Versene solution (Invitrogen) followed by the addition of 5 ml of solution A. The cells were then incubated for 40 min in solution A containing a human LDLR mAb-C7 (1:100; Santa Cruz Biotechnology). Following washes, the cells were then incubated for 20 min in solution A containing a secondary antibody (Alexa Fluor 647 donkey anti-mouse antibody; 1:250; Molecular Probes).
Following suspension in PBS containing 0.2% of propidium iodide, the cells were analyzed by FACS for both propidium iodide (dead cells) and LDLR in live cells with Alexa Fluor 647 using the FACS BD LSR (BD Biosciences).

[3] = HuH7, 0.5 μg/ml PCSK9-D374Y, 100 uM peptide (FIG. 3)
[4] = HuH7, 0.5 μg/ml PCSK9 GOF-D374Y, increasing concentrations of peptide (FIG. 4)

Sequence of PCSK9-D374Y protein (Q8NBP7 153-692 D374Y): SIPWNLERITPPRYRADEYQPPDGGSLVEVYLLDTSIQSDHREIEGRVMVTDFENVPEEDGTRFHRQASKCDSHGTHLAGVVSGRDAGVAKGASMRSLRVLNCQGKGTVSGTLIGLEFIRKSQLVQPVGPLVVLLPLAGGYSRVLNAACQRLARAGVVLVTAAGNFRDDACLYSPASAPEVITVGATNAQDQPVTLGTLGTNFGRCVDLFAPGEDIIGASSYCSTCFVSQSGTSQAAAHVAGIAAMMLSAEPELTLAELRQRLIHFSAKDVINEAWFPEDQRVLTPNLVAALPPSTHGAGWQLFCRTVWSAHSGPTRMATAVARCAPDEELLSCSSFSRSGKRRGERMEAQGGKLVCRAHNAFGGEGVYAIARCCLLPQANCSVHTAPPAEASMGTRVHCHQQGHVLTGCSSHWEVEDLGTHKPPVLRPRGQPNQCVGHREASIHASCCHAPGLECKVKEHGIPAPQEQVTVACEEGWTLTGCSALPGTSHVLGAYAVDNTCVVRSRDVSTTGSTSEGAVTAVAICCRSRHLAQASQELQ
T1 sequence (Q8NBP7 153-692): as the sequence (Q8NBP7 153-692 D374Y) above, with Y222D counted along it

| LDL internalization (dil-LDL % uptake vs Cnt) (PCSK9-WT protein [1]) | LDL internalization (dil-LDL % uptake vs Cnt) (PCSK9-D374Y protein; [3]) | LDL internalization (dil-LDL % uptake vs Cnt) (PCSK9-D374Y protein; [4]) | modulation of LDLR cell surface level (PCSK9-WT protein [2]) | Substance |
| --- | --- | --- | --- | --- |
| negatively modulated (decreased) | positively modulated (increased) | positively modulated (increased) |  | LDLFFS [Compound 9] |
| positively modulated (increased) | positively modulated (increased) | positively modulated (increased) | positively modulate (increase) | β-Ala-Phe(3-CH2NH2)-Val-D-Ser(p)-Phe-Trp ([βAla][Phe(3-CH2NH2)]V[d(pS)]FW) [Compound 2] |
| negatively modulated (decreased) | negatively modulated (decreased) |  | negatively modulate (decrease) | Phe(4-Ph)-Ala-Ser(p)-morpholine [Compound 16] |
| positively modulated (increased) |  |  |  | Ile-Leu-Asp-Leu-Ser-Tyr (ILDLSY; not fully specified (C-terminus); printed as Ile-Leu-Asp-Leu-Ser-Tyr) [Compound 10] |
| negatively modulated (decreased) | negatively modulated (decreased) |  |  | Thr-Leu-Thr-Trp-Ser-Ser-Ser(p) (TLTWSS[pS]) [Compound 15] |
| negatively modulated (decreased) | positively modulated (increased) |  |  | Thr-Leu-Cys(CH2-Ph)-Thr-Trp(3-Me)-Ser-Ser-Ser(p) (TL[Cys(CH2-Ph)]T[Trp(3-Me)]SS[pS]) [Compound 7] |

| Substance | LDL internalization (dil-LDL % uptake vs Cnt) (PCSK9-WT protein [1]) | LDL internalization (dil-LDL % uptake vs Cnt) (PCSK9-D374Y protein; [3]) | LDL internalization (dil-LDL % uptake vs Cnt) (PCSK9-D374Y protein; [4]) | modulation of LDLR cell surface level (PCSK9-WT protein [2]) |
| --- | --- | --- | --- | --- |
| Thr-Leu-Cys(CH2-Ph)-Thr-Trp-Ser-Ser-Ser(p) [Compound 3] | positively modulated (increased) | positively modulated (increased) | positively modulated (increased) | positively modulate (increase) |
